The values that follow are results of earlier work, collected in patent US20110171162A1, “POLYMER CONJUGATES OF THYMOSIN ALPHA 1 PEPTIDES” (NEKTAR THERAPEUTICS, priority 2008, published 2011).

For this data set the following is noted: in human plasma.

For the substance “thymosin alpha 1: Twenty-eight amino acid peptide, SEQ ID NO: 1 (SDAAVDTSSEITTKDLKEKKEVVEEAEN); sold as ZADAXIN thymosin alpha 1, injection (thymalfasin) (listed as Homo sapiens)”, the half-life result was “approximately two”.
